Data taken from patent US12070483B2, “Compositions and methods for treatment of acute lung injury” (THE TRUSTEES OF THE UNIVERSITY OF PENNSYLVANIA, priority 2018, dated 2024).

Tests used:
[1] = target: T1, Prdx6 (Mus musculus, UniProt O08709); assay: aiPLA2 (Prdx6-PLA2) activity of mouse lung homogenate after IT or IV injection of PIP; type: in vivo; design: key to aiPLA2 activity, figure in parentheses (0 h = 100): Prdx6-PLA2 activity as % of 0 h value (0 h = 100); settings: for aiPLA2 activity of mouse lung: 24 hours after IV injection, 2 μg/g, liposomes only 8.81; for Prdx6-PLA2 activity of mouse lung homogenate: Table 6
T1 construct: from tissue; host or cells: mouse lung homogenate (wild type mice)
T1 sequence (O08709 1-224): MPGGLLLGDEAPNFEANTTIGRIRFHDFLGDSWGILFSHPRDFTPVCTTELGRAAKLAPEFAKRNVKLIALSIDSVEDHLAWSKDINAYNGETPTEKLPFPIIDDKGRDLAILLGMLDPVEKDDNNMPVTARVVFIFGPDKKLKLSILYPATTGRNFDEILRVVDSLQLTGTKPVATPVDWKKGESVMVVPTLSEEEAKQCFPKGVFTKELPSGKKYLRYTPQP
Description: FIG. 6: PIP-2 in liposomes was administered to mice either intratracheally (IT) or intravenously (IV) at 0 time. Lungs were harvested at intervals between 4 and 72 h after the PIP-2 administration, homogenized, and analyzed for Prdx6-PLA2 activity. PIP-2 is effective by either the IT or IV route with a calculated ½ time for recovery of ˜50 h. Results are mean+SE for N=3-4.
PIP-2 in liposomes injected IV or IT inhibits Prdx6 activity of the lung homogenate. Maximal inhibition was seen within 4 hours after administration of PIP-2. Recovery from inhibition began at ˜36 hours and was complete by 48 hours. Results are similar for PIP-1,2,4 (PIP-3 and -5 were not tested). […] Effectiveness requires liposomes for peptide delivery. Inhibition after IT or IV administration was similar.

[2] = system: C57Bl/6 mice, LPS-mediated lung injury; assay: Acute lung injury after intratracheal LPS (5 μg/g), lungs evaluated at 24 h; type: in vivo, mouse; settings: LPS 5 μg/g IT, sacrifice at 24 hrs
[3] = target: T2, aiPLA2 activity of Prdx6 (Mus musculus, UniProt O08709); assay: Lung aiPLA2 activity after IT LPS; type: in vivo; settings: PIP-2 with IT LPS 5 μg/g; 6, 12 and 24 h
T2 construct: from tissue; host or cells: mouse lung homogenate (wild type mice)
T2 sequence (O08709 1-224): T1 sequence (O08709 1-224)
Description: FIGS. 4A and 4B: Phospholipase A2 of Prdx6 (aiPLA2) was measured by the liberation of palmitic acid from dipalmitoylphosphatidylcholine under acidic conditions (pH 4) in the absence of Ca^2+. FIG. 4A: The effect of increasing concentration of PIP-2 on the aiPLA2 activity of recombinant human Prdx6. FIG. 4B: The effect of LPS and PIP-2 treatment on aiPLA2 activity of mouse lungs. Mice (n=3 for each condition) were treated with intratracheal LPS (2 μg/g body wt) without or with PIP-2 (2 μg/g body weight) in liposomes. Animals were sacrificed at 6,12, or 24 h after receiving LPS. Lungs were cleared of blood and homogenized.
FIGS. 9A and 9B: PIP-2 inhibits the increased lung aiPLA2 activity and increased ROS generation after LPS administration. LPS (5 μg/g body weight) was administered by intratracheal (IT) instillation along with liposomes alone (labeled as LPS) or with PIP-2 in liposomes (labeled as +PIP-2). Control was liposomes alone without LPS (labeled as control). Mice were sacrificed at 6, 12, or 24 h after LPS and lungs were perfused in situ for 15 min with saline solution containing the fluorophore difluorofluoroscein diacetate (DFF-DA). Lungs then were homogenized and assayed for: FIG. 9A: aiPLA2 activity; FIG. 9B: fluorescence of the lung homogenate as an index of ROS production. […]

[4] = system: mechanically ventilated mice; assay: Ventilation-induced lung injury (VILI); type: in vivo, mouse; settings: PIP-2 2 ug/g in liposomes IT at start of 6 h mechanical ventilation
Description: FIG. 13: Effect of PIP-2 on ventilation-induced lung injury (VILI). Anesthetized mice were mechanically ventilated for 6 h with tidal volume 12 ml/Kg body weight with a respiratory rate 120/min, and 2 cm H2O positive end-expiratory pressure (PEEP). […] Control represents values for normal (non-ventilated) lungs. % Protection was calculated as in Table 1. Results are mean±SE for n=4. *P<0.05 for VILI+PIP vs VILI.

[5] = system: mice, intraperitoneal LPS; assay: Intraperitoneal LPS (15 μg/g) model of ALI with systemic sepsis: survival; settings: LPS 15 μg/g IP
Description: (§1) LPS (15 mg/g body wt) was given to all mice either by: FIG. 7A: intratracheal (IT) or FIG. 7B: intraperitoneal (IP) injection. PIP-2 in liposomes or placebo (liposomes alone) was administered intravenously (IV) 12 h after LPS (this is treatment time zero) and then at 12 or 24 h intervals for a total of 5 doses as indicated by the arrows. FIG. 7A: PIP-2 at 2 μg/g body wt; N=14 for each group. FIG. 7B: PIP-2 at 2 or 20 μg/g body wt.; Placebo group, n=8; PIP-2 2 mg group, n=7; PIP-2 20 mg group, n=10.
(§2) Anesthesized mice were administered LPS (either 5 or 15 μgig body weight) in 20 μl saline that was instilled into the lung through an endotracheal catheter placed at the level of the tracheal carina. […] PIP-2 in liposomes was suspended in 20 μl saline for IV or IT injection. For studies to evaluate the effect of PIP-2 at zero time, LPS administration was followed by liposomes±PIP-2 also given by IT instillation. For studies to evaluate the effect of PIP-2 administered at later times after LPS, the liposomes±PIP-2 were given by injection into a retinal artery. This shift in route of administration was used to minimize damage to the mouse trachea that could occur with repeated tracheostomy and lead to untoward effects on the lung. […] We gave the second dose of PIP-2 at 12 h to be certain of maximal coverage and then went to every 24 h for PIP-2 administration. For the model of sepsis, LPS (15 μg/g body wt.) in 20 μl saline was injected intraperitoneally and mice were treated with IV PIP-2 at either 2 or 20 μg/g body wt; note that the initial dose of PIP-2 for this sepsis model was IV, not IT. We used the same times of PIP-2 administration in the sepsis model as were used for the IT LPS model. After recovery from anesthesia, all mice were maintained in the vivarium with access ad lib to food and water.
We next evaluated the effect of PIP-2 in mice given LPS (15 μg LPS/g body wt.) by the intraperitoneal route as a model for ALI associated with systemic sepsis.

[6] = system: mice, high dose IT LPS; assay: High dose intratracheal LPS (15 μg/g): survival and lung injury of survivors
Description: as §1, §2
At the end of each experiment with IT LPS (at either 24 or 120 h), surviving mice were sacrificed by exsanguination under anesthesia. Lungs in situ were cleared of blood by perfusion through the pulmonary artery and then were lavaged through the trachea with saline. The lung was then removed from the thorax for tissue assays. We evaluated the effect of LPS on lung injury by measuring the number of nucleated cells and the protein content in the lung bronchoalveolar lavage fluid (BALf), the lung wet to dry lung weight ratio using the left upper lobe of lung, and thiobarbituric-acid reactive products (TBARS), 8-isoprostanes, and protein carbonyls in the lung homogenate to determine the oxidation of lung tissue lipid and protein components. For studies of mouse mortality, survival plots were constructed using the Kaplan-Meier estimator.
The survival data is plotted with the initial PIP-2 treatment as 0 time; LPS was administered 12 h before PIP-2 (−12 h that is off of the graph in FIG. 7A and FIG. 7B).
Mice were instilled IT with LPS (15 μg/g wt); PIP-2 (2 μg/g body wt) in liposomes was injected (IV) at the times shown in FIG. 7A. Five of the surviving mice were sacrificed at 120 h after LPS; control mice were given liposomes but not LPS. […] Values are mean±SE for N=4 for control and N=5 for LPS+PIP-2.

LYEIKHQIL (Inhibitory peptide.) [PIP-4]
aiPLA2 activity of mouse lung ([1]; alone, no liposomes): 8.43 ± 0.23 (n = 3) nmol/hr/mg prot
aiPLA2 activity of mouse lung ([1]; in liposomes): 1.55 ± 0.02 (n = 3) nmol/hr/mg prot
Prdx6-PLA2 activity of mouse lung homogenate ([1]; IV, 0 post injection): 8.0 ± 0.7 nmol/hr/mg protein
Prdx6-PLA2 activity of mouse lung homogenate ([1]; IV, 24 hr post injection): 1.1 ± 0.02 nmol/hr/mg protein
Prdx6-PLA2 activity of mouse lung homogenate ([1]; IV, 48 hr post injection): 2.8 ± 0.2 nmol/hr/mg protein
Prdx6-PLA2 activity of mouse lung homogenate ([1]; IV, 72 hr post injection): 7.8 ± 1.2 nmol/hr/mg protein
Prdx6-PLA2 activity of mouse lung homogenate ([1]; IV, 96 hr post injection): 8.1 ± 0.2 nmol/hr/mg protein
protein ([2]; PIP-4 2 μg/g IT @0 hrs, LPS alone 166): 77 ± 3 μg protein/g wt
TBARS ([2]; PIP-4 2 μg/g IT @0 hrs, LPS alone 374): 78 ± 4 pmol/mg prot.
TBARS ([2]; PIP-4 2 μg/g IV @12 hr): 84 ± 2 pmol/mg prot.
Wet/Dry lung weight ratio ([2]; PIP-4 2 μg/g IV @12 hr): 5.94 ± 0.05

LHDFRHQIL (Inhibitory peptide.) [PIP-2]
aiPLA2 activity of mouse lung homogenate ([1]; IT, 0 h post injection): 8.84 ± 0.35 nmol/hr/mg protein
aiPLA2 activity, figure in parentheses (0 h = 100) ([1]; IT, 0 h post injection): 100
aiPLA2 activity of mouse lung homogenate ([1]; IT, 4 h post injection): 1.56 ± 0.03 nmol/hr/mg protein
aiPLA2 activity, figure in parentheses (0 h = 100) ([1]; IT, 4 h post injection): 18
aiPLA2 activity of mouse lung homogenate ([1]; IT, 12 h post injection): 1.61 ± 0.04 nmol/hr/mg protein
aiPLA2 activity, figure in parentheses (0 h = 100) ([1]; IT, 12 h post injection): 18
aiPLA2 activity of mouse lung homogenate ([1]; IT, 24 h post injection): 1.63 ± 0.14 nmol/hr/mg protein
aiPLA2 activity, figure in parentheses (0 h = 100) ([1]; IT, 24 h post injection): 18
aiPLA2 activity of mouse lung homogenate ([1]; IT, 36 h post injection): 2.04 ± 0.04 nmol/hr/mg protein
aiPLA2 activity, figure in parentheses (0 h = 100) ([1]; IT, 36 h post injection): 27
aiPLA2 activity of mouse lung homogenate ([1]; IT, 48 h post injection): 2.95 ± 0.10 nmol/hr/mg protein
aiPLA2 activity, figure in parentheses (0 h = 100) ([1]; IT, 48 h post injection): 33
aiPLA2 activity of mouse lung homogenate ([1]; IT, 72 h post injection): 8.78 ± 0.18 nmol/hr/mg protein
aiPLA2 activity, figure in parentheses (0 h = 100) ([1]; IT, 72 h post injection): 99
aiPLA2 activity of mouse lung homogenate ([1]; IV, 0 h post injection): 8.85 ± 0.3 nmol/hr/mg protein
aiPLA2 activity, figure in parentheses (0 h = 100) ([1]; IV, 0 h post injection): 100
aiPLA2 activity of mouse lung homogenate ([1]; IV, 4 h post injection): 1.45 ± 0.07 nmol/hr/mg protein
aiPLA2 activity, figure in parentheses (0 h = 100) ([1]; IV, 4 h post injection): 16
aiPLA2 activity of mouse lung homogenate ([1]; IV, 12 h post injection): 1.58 ± 0.04 nmol/hr/mg protein
aiPLA2 activity, figure in parentheses (0 h = 100) ([1]; IV, 12 h post injection): 18
aiPLA2 activity of mouse lung homogenate ([1]; IV, 24 h post injection): 1.77 ± 0.11 nmol/hr/mg protein
aiPLA2 activity, figure in parentheses (0 h = 100) ([1]; IV, 24 h post injection): 20
aiPLA2 activity of mouse lung homogenate ([1]; IV, 36 h post injection): 2.14 ± 0.03 nmol/hr/mg protein
aiPLA2 activity, figure in parentheses (0 h = 100) ([1]; IV, 36 h post injection): 24
aiPLA2 activity of mouse lung homogenate ([1]; IV, 48 h post injection): 3.03 ± 0.05 nmol/hr/mg protein
aiPLA2 activity, figure in parentheses (0 h = 100) ([1]; IV, 48 h post injection): 34
aiPLA2 activity of mouse lung homogenate ([1]; IV, 72 h post injection): 8.49 ± 0.10 nmol/hr/mg protein
aiPLA2 activity, figure in parentheses (0 h = 100) ([1]; IV, 72 h post injection): 96
time at which recovery from inhibition began ([1]; PIP-2 in liposomes IV or IT): ~36 h
time at which recovery from inhibition was complete ([1]; PIP-2 in liposomes IV or IT): ≤ 48 h
time to maximal inhibition of Prdx6 activity of lung homogenate ([1]; PIP-2 in liposomes IV or IT): ≤ 4 h
calculated ½ time for recovery of Prdx6-PLA2 activity ([1]; PIP-2 in liposomes, IT or IV): ~50 h
Prdx6-PLA2 activity of mouse lung homogenate ([1]; IT, lungs lavaged prior to assay, 0 post injection): 8.1 ± 0.3 nmol/hr/mg protein
Prdx6-PLA2 activity of mouse lung homogenate ([1]; IT, lungs lavaged, 24 hr post injection): 1.2 ± 0.02 nmol/hr/mg protein
Prdx6-PLA2 activity of mouse lung homogenate ([1]; IT, lungs lavaged, 48 hr post injection): 3.0 ± 0.2 nmol/hr/mg protein
Prdx6-PLA2 activity of mouse lung homogenate ([1]; IT, lungs lavaged, 72 hr post injection): 8.3 ± 0.9 nmol/hr/mg protein
aiPLA2 activity of lung after LPS [3]: dramatic decrease
effect on ventilation-induced lung injury [4]: protected against lung injury
mice fully recovered ([5]; PIP-2 2 μg/g IV): 43%
survival at 36 h after LPS ([5]; PIP-2 2 μg/g IV, placebo 100% dead by 48 h): 86%
long term survival rate ([5]; PIP-2 20 μg/g IV): 70%
lungs of PIP-2 treated mice that survive high dose LPS ([6]; LPS 15 μg/g IT or IP, PIP-2 2 or 20 μg/g IV, 5 days after LPS): normal lungs
BALf cells ([6]; LPS 15 μg/g IT, PIP-2 2 μg/g IV in liposomes 5 doses, survivors sacrificed 120 h after LPS, control 0.95): 0.96 ± 0.40 ×10^4/g body wt.
Wet/Dry ratio ([6]; LPS 15 μg/g IT, PIP-2 2 μg/g IV, survivors at 120 h after LPS, control 5.59): 5.34 ± 0.03
Protein carbonyls ([6]; LPS 15 μg/g IT, PIP-2 2 μg/g IV, survivors at 120 h after LPS, control 5.6): 5.6 ± 0.2 nmol/mg prot
8-Isoprostanes ([6]; LPS 15 μg/g IT, PIP-2 2 μg/g IV, survivors at 120 h after LPS, control 34): 34 ± 3 pmol/mg prot
BALf protein ([6]; LPS 15 μg/g IT, PIP-2 2 μg/g IV, survivors at 120 h after LPS, control 75): 78 ± 2.2 μg/g wt
TBARS ([6]; LPS 15 μg/g IT, PIP-2 2 μg/g IV, survivors at 120 h after LPS, control 76): 77 ± 1 pmol/mg prot
mortality ([6]; LPS 15 μg/g IT, PIP-2 2 μg/g IV at 12, 24, 48, 72, 96 h after LPS, at 36 h after start of treatment, no further mortality, placebo 100% by 48 h): 17%
survival ([6]; LPS 15 μg/g IT, PIP-2 2 μg/g IV, at 36 h after start of treatment): 83%
